As usually defined, the Kd is the equilibrium constant for the complex coming apart. For orientation: stoichiometry N means a count of units in the complex or per binding partner.

Assay [1] concerns the target T2Q A34F variant of GB1. The experiment in a line: NMR titration; 19F NMR of 3-fluorotyrosine-labelled A34F, serial dilution 500 to 15.6 uM; dimer to monomers; 20 mM phosphate pH 7.0, 10% D2O, 298 K; with ficoll (70 kDa) as crowder.
The target in assay [2] is T2Q A34F variant of GB1. The experiment in a line: NMR titration; 19F NMR of 3-fluorotyrosine-labelled A34F, serial dilution 500 to 15.6 uM; dimer to monomers; 20 mM phosphate pH 7.0, 10% D2O, 298 K; with 100 g/L heparin (15 kDa) as crowder.
The target in assay [3] is T2Q A34F variant of GB1. Put plainly: NMR titration; 19F NMR of 3-fluorotyrosine-labelled A34F, serial dilution 500 to 15.6 uM; dimer to monomers; 20 mM phosphate pH 7.0, 10% D2O, 298 K; with hyaluronic acid (50 kDa) as crowder.
In assay [4] the target is T2Q A34F variant of GB1. The experiment in a line: NMR titration; 19F NMR of 3-fluorotyrosine-labelled A34F, serial dilution 500 to 15.6 uM; dimer to monomers; 20 mM phosphate pH 7.0, 10% D2O, 298 K; with 100 g/L mucin (porcine stomach) as crowder.
For assay [5], the target named is T2Q A34F variant of GB1. Put plainly: NMR titration; 19F NMR of 3-fluorotyrosine-labelled A34F, serial dilution 500 to 15.6 uM, Y33 monomer and dimer peak integrals; dimer to monomers; 20 mM phosphate pH 7.0, 10% D2O, 298 K; buffer alone.

In the case of “T2Q A34F variant of GB1 (domain or fragment)”, the Kd amounted to 42 µM with T2Q A34F variant of GB1 [1]; 12 µM with T2Q A34F variant of GB1 [2]; 8 µM with T2Q A34F variant of GB1 [3]; 26 µM with T2Q A34F variant of GB1 [4]; 57 µM with T2Q A34F variant of GB1 [5]. Further, the stoichiometry N in the assay with T2Q A34F variant of GB1 [5] was 2.

These data come from publication PMC12720779.
